The numbers were not newly measured in PMC5403572, which cites them from elsewhere.

One series deals with Asp228 (UniProt position 289, DKSIVDSGTTN). Put plainly: kinetics. To be noted: apo (free) enzyme.
For the next series, the target named is Asp32 (UniProt position 93, LNILVDTGSSN). Put plainly: kinetics. To be noted: apo (free) enzyme.

On to “Beta-secretase 1 (BACE1, memapsin 2) (Homo sapiens)”, for which the pKa in the series with Asp228 is on record as 3.5; with Asp32, 5.2.
